Measurements from US20250218531A1 (ABSCI, published 2025).

target: T1, human epidermal growth factor receptor 2 (HER2) extracellular domain (human, UniProt P04626 23-629); assay: SPR, Fab format

Binder	Kd [nM]	log(KD (M)) [log M]
De novo trastuzumab HCDR3 variant ARDYDFGLSVGAV (SEQ ID NO: 486) (Fab, V domains shown) VH: EVQLVESGGGLVQPGGSLRLSCAASGFNIKDTYIHWVRQAPGKGLEWVARIYPTNGYTRYADSVKGRFTISADTSKNTAYLQMNSLRAEDTAVYYCARDYDFGLSVGAVWGQGTLVTVSS VL: not shown	358	-6.45
De novo trastuzumab HCDR3 variant ARSNNWYSYSFQF (SEQ ID NO: 478) (Fab, V domains shown) VH: EVQLVESGGGLVQPGGSLRLSCAASGFNIKDTYIHWVRQAPGKGLEWVARIYPTNGYTRYADSVKGRFTISADTSKNTAYLQMNSLRAEDTAVYYCARSNNWYSYSFQFWGQGTLVTVSS VL: not shown	278	-6.56
De novo trastuzumab HCDR3 variant AYMGSHTIYSFEH (SEQ ID NO: 479) (Fab, V domains shown) VH: EVQLVESGGGLVQPGGSLRLSCAASGFNIKDTYIHWVRQAPGKGLEWVARIYPTNGYTRYADSVKGRFTISADTSKNTAYLQMNSLRAEDTAVYYCAYMGSHTIYSFEHWGQGTLVTVSS VL: not shown	301	-6.52
De novo trastuzumab HCDR3 variant AWASGYGGYGMDY (SEQ ID NO: 488) (Fab, V domains shown) VH: EVQLVESGGGLVQPGGSLRLSCAASGFNIKDTYIHWVRQAPGKGLEWVARIYPTNGYTRYADSVKGRFTISADTSKNTAYLQMNSLRAEDTAVYYCAWASGYGGYGMDYWGQGTLVTVSS VL: not shown	368	-6.43
De novo trastuzumab HCDR3 variant ARGYAYYVAGREY (SEQ ID NO: 493) (Fab, V domains shown) VH: EVQLVESGGGLVQPGGSLRLSCAASGFNIKDTYIHWVRQAPGKGLEWVARIYPTNGYTRYADSVKGRFTISADTSKNTAYLQMNSLRAEDTAVYYCARGYAYYVAGREYWGQGTLVTVSS VL: not shown	496	-6.3
De novo trastuzumab HCDR3 variant ARLGASHGYLYDD (SEQ ID NO: 484) (Fab, V domains shown) VH: EVQLVESGGGLVQPGGSLRLSCAASGFNIKDTYIHWVRQAPGKGLEWVARIYPTNGYTRYADSVKGRFTISADTSKNTAYLQMNSLRAEDTAVYYCARLGASHGYLYDDWGQGTLVTVSS VL: not shown	328	-6.48
De novo trastuzumab HCDR3 variant ATGLSPSGSNGPY (SEQ ID NO: 491) (Fab, V domains shown) VH: EVQLVESGGGLVQPGGSLRLSCAASGFNIKDTYIHWVRQAPGKGLEWVARIYPTNGYTRYADSVKGRFTISADTSKNTAYLQMNSLRAEDTAVYYCATGLSPSGSNGPYWGQGTLVTVSS VL: not shown	444	-6.35
De novo trastuzumab HCDR3 variant ARYHYRTIGSFGY (SEQ ID NO: 487) (Fab, V domains shown) VH: EVQLVESGGGLVQPGGSLRLSCAASGFNIKDTYIHWVRQAPGKGLEWVARIYPTNGYTRYADSVKGRFTISADTSKNTAYLQMNSLRAEDTAVYYCARYHYRTIGSFGYWGQGTLVTVSS VL: not shown	367	-6.44
De novo trastuzumab HCDR3 variant ATSGTASWQHYGV (SEQ ID NO: 481) (Fab, V domains shown) VH: EVQLVESGGGLVQPGGSLRLSCAASGFNIKDTYIHWVRQAPGKGLEWVARIYPTNGYTRYADSVKGRFTISADTSKNTAYLQMNSLRAEDTAVYYCATSGTASWQHYGVWGQGTLVTVSS VL: not shown	322	-6.49
De novo trastuzumab HCDR3 variant ARNYYGAAYYFDY (SEQ ID NO: 495) (Fab, V domains shown) VH: EVQLVESGGGLVQPGGSLRLSCAASGFNIKDTYIHWVRQAPGKGLEWVARIYPTNGYTRYADSVKGRFTISADTSKNTAYLQMNSLRAEDTAVYYCARNYYGAAYYFDYWGQGTLVTVSS VL: not shown	570	-6.24
De novo trastuzumab HCDR3 variant VRSGYDYYSWFAY (SEQ ID NO: 492) (Fab, V domains shown) VH: EVQLVESGGGLVQPGGSLRLSCAASGFNIKDTYIHWVRQAPGKGLEWVARIYPTNGYTRYADSVKGRFTISADTSKNTAYLQMNSLRAEDTAVYYCVRSGYDYYSWFAYWGQGTLVTVSS VL: not shown	465	-6.33
De novo trastuzumab HCDR3 variant ARLYYSSFNGM (SEQ ID NO: 485) (Fab, V domains shown) VH: EVQLVESGGGLVQPGGSLRLSCAASGFNIKDTYIHWVRQAPGKGLEWVARIYPTNGYTRYADSVKGRFTISADTSKNTAYLQMNSLRAEDTAVYYCARLYYSSFNGMWGQGTLVTVSS VL: not shown	339	-6.47
De novo trastuzumab HCDR3 variant TRRDFGYYMAY (SEQ ID NO: 494) (Fab, V domains shown) VH: EVQLVESGGGLVQPGGSLRLSCAASGFNIKDTYIHWVRQAPGKGLEWVARIYPTNGYTRYADSVKGRFTISADTSKNTAYLQMNSLRAEDTAVYYCTRRDFGYYMAYWGQGTLVTVSS VL: not shown	547	-6.26
De novo trastuzumab HCDR3 variant AVEGGTRALEP (SEQ ID NO: 483) (Fab, V domains shown) VH: EVQLVESGGGLVQPGGSLRLSCAASGFNIKDTYIHWVRQAPGKGLEWVARIYPTNGYTRYADSVKGRFTISADTSKNTAYLQMNSLRAEDTAVYYCAVEGGTRALEPWGQGTLVTVSS VL: not shown	326	-6.49
De novo trastuzumab HCDR3 variant ARYYGWYYYFDY (SEQ ID NO: 482) (Fab, V domains shown) VH: EVQLVESGGGLVQPGGSLRLSCAASGFNIKDTYIHWVRQAPGKGLEWVARIYPTNGYTRYADSVKGRFTISADTSKNTAYLQMNSLRAEDTAVYYCARYYGWYYYFDYWGQGTLVTVSS VL: not shown	323	-6.49
De novo trastuzumab HCDR3 variant ARYHYSGFFMDA (SEQ ID NO: 489) (Fab, V domains shown) VH: EVQLVESGGGLVQPGGSLRLSCAASGFNIKDTYIHWVRQAPGKGLEWVARIYPTNGYTRYADSVKGRFTISADTSKNTAYLQMNSLRAEDTAVYYCARYHYSGFFMDAWGQGTLVTVSS VL: not shown	433	-6.36
De novo trastuzumab HCDR3 variant ARYLSDSYAWDY (SEQ ID NO: 490) (Fab, V domains shown) VH: EVQLVESGGGLVQPGGSLRLSCAASGFNIKDTYIHWVRQAPGKGLEWVARIYPTNGYTRYADSVKGRFTISADTSKNTAYLQMNSLRAEDTAVYYCARYLSDSYAWDYWGQGTLVTVSS VL: not shown	434	-6.36
De novo trastuzumab HCDR3 variant ARGYGVGASFVY (SEQ ID NO: 496) (Fab, V domains shown) VH: EVQLVESGGGLVQPGGSLRLSCAASGFNIKDTYIHWVRQAPGKGLEWVARIYPTNGYTRYADSVKGRFTISADTSKNTAYLQMNSLRAEDTAVYYCARGYGVGASFVYWGQGTLVTVSS VL: not shown	630	-6.2
De novo trastuzumab HCDR3 variant ASDRYGSYSLVS (SEQ ID NO: 480) (Fab, V domains shown) VH: EVQLVESGGGLVQPGGSLRLSCAASGFNIKDTYIHWVRQAPGKGLEWVARIYPTNGYTRYADSVKGRFTISADTSKNTAYLQMNSLRAEDTAVYYCASDRYGSYSLVSWGQGTLVTVSS VL: not shown	314	-6.5

target: T1, human epidermal growth factor receptor …; assay: SPR, Fab format; remark: another data set of the same source

Binder	Kd [nM]	log(KD (M)) [log M]
De novo trastuzumab HCDR1|2|3 variant GFNVSSSY / IYPENGST / SRYSYYGGYAFDY (Fab, V domains shown, also called AI Design 1) VH: EVQLVESGGGLVQPGGSLRLSCAASGFNVSSSYIHWVRQAPGKGLEWVARIYPENGSTRYADSVKGRFTISADTSKNTAYLQMNSLRAEDTAVYYCSRYSYYGGYAFDYWGQGTLVTVSS VL: not shown	225	-6.65
Multi-step trastuzumab HCDR3 variant ARYSGDSYYYYDY (SEQ ID NO: 550) (Fab, V domains shown) VH: EVQLVESGGGLVQPGGSLRLSCAASGFNIKDTYIHWVRQAPGKGLEWVARIYPTNGYTRYADSVKGRFTISADTSKNTAYLQMNSLRAEDTAVYYCARYSGDSYYYYDYWGQGTLVTVSS VL: not shown	366	-6.44
Multi-step trastuzumab HCDR3 variant ARYSSSGGSAFDY (SEQ ID NO: 542) (Fab, V domains shown) VH: EVQLVESGGGLVQPGGSLRLSCAASGFNIKDTYIHWVRQAPGKGLEWVARIYPTNGYTRYADSVKGRFTISADTSKNTAYLQMNSLRAEDTAVYYCARYSSSGGSAFDYWGQGTLVTVSS VL: not shown	1990	-5.7
Multi-step trastuzumab HCDR3 variant ARYYGSSSYYFAY (SEQ ID NO: 75) (Fab, V domains shown, also called AI Design 9) VH: EVQLVESGGGLVQPGGSLRLSCAASGFNIKDTYIHWVRQAPGKGLEWVARIYPTNGYTRYADSVKGRFTISADTSKNTAYLQMNSLRAEDTAVYYCARYYGSSSYYFAYWGQGTLVTVSS VL: not shown	60.6	-7.22
Multi-step trastuzumab HCDR3 variant TRYSYYGYHAMDY (SEQ ID NO: 549) (Fab, V domains shown) VH: EVQLVESGGGLVQPGGSLRLSCAASGFNIKDTYIHWVRQAPGKGLEWVARIYPTNGYTRYADSVKGRFTISADTSKNTAYLQMNSLRAEDTAVYYCTRYSYYGYHAMDYWGQGTLVTVSS VL: not shown	354	-6.45
Multi-step trastuzumab HCDR3 variant SRYSYSGGGSFDY (SEQ ID NO: 537) (Fab, V domains shown) VH: EVQLVESGGGLVQPGGSLRLSCAASGFNIKDTYIHWVRQAPGKGLEWVARIYPTNGYTRYADSVKGRFTISADTSKNTAYLQMNSLRAEDTAVYYCSRYSYSGGGSFDYWGQGTLVTVSS VL: not shown	362	-6.44
Multi-step trastuzumab HCDR3 variant ARYSYYGGGAFDY (SEQ ID NO: 543) (Fab, V domains shown) VH: EVQLVESGGGLVQPGGSLRLSCAASGFNIKDTYIHWVRQAPGKGLEWVARIYPTNGYTRYADSVKGRFTISADTSKNTAYLQMNSLRAEDTAVYYCARYSYYGGGAFDYWGQGTLVTVSS VL: not shown	191	-6.72
Multi-step trastuzumab HCDR3 variant ARYSYYGGGYFDY (SEQ ID NO: 515) (Fab, V domains shown) VH: EVQLVESGGGLVQPGGSLRLSCAASGFNIKDTYIHWVRQAPGKGLEWVARIYPTNGYTRYADSVKGRFTISADTSKNTAYLQMNSLRAEDTAVYYCARYSYYGGGYFDYWGQGTLVTVSS VL: not shown	478	-6.32
Multi-step trastuzumab HCDR3 variant SRYGYSGYGAFDY (SEQ ID NO: 521) (Fab, V domains shown) VH: EVQLVESGGGLVQPGGSLRLSCAASGFNIKDTYIHWVRQAPGKGLEWVARIYPTNGYTRYADSVKGRFTISADTSKNTAYLQMNSLRAEDTAVYYCSRYGYSGYGAFDYWGQGTLVTVSS VL: not shown	1050	-5.98
Multi-step trastuzumab HCDR3 variant ARYSGSSYYYYDY (SEQ ID NO: 536) (Fab, V domains shown) VH: EVQLVESGGGLVQPGGSLRLSCAASGFNIKDTYIHWVRQAPGKGLEWVARIYPTNGYTRYADSVKGRFTISADTSKNTAYLQMNSLRAEDTAVYYCARYSGSSYYYYDYWGQGTLVTVSS VL: not shown	423	-6.37
Multi-step trastuzumab HCDR3 variant TRYGSFGYYALDS (SEQ ID NO: 530) (Fab, V domains shown) VH: EVQLVESGGGLVQPGGSLRLSCAASGFNIKDTYIHWVRQAPGKGLEWVARIYPTNGYTRYADSVKGRFTISADTSKNTAYLQMNSLRAEDTAVYYCTRYGSFGYYALDSWGQGTLVTVSS VL: not shown	57.6	-7.24
Multi-step trastuzumab HCDR3 variant ASSGGSSSYSYYY (SEQ ID NO: 513) (Fab, V domains shown) VH: EVQLVESGGGLVQPGGSLRLSCAASGFNIKDTYIHWVRQAPGKGLEWVARIYPTNGYTRYADSVKGRFTISADTSKNTAYLQMNSLRAEDTAVYYCASSGGSSSYSYYYWGQGTLVTVSS VL: not shown	1720	-5.76
